{
  "source": "paper PMC12857291",
  "key": {"MeCP2-MBD WT [1]": {"biological_target": "T1, MeCP2-MBD WT (UniProt P51608 80-164)", "T1 sequence (P51608 80-164)": "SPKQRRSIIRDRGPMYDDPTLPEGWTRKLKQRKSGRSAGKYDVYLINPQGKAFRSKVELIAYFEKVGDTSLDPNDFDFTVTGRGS", "assay": "EMSA; no peptide; EMSA: 0.5 uM DNA, 0-20 uM protein, 50 mM HEPES pH 7.5, 100 mM NaCl, 1 h at 4 C; 6% native PAGE, 1X TBE, 80 V, 4 C; SYBR Gold; n=3", "conditions": "protein: recombinant; tags: C-terminal 6xHis; label: none (SYBR Gold stain); blunt"}, "MeCP2-MBD WT [2]": {"biological_target": "T1, MeCP2-MBD WT", "assay": "EMSA; 20 uM histone H3(15-36)K27me3 peptide; EMSA: 0.5 uM DNA, 0-20 uM protein, 50 mM HEPES pH 7.5, 100 mM NaCl, 1 h at 4 C; 6% native PAGE, 1X TBE, 80 V, 4 C; SYBR Gold; n=3", "conditions": "protein: recombinant; tags: C-terminal 6xHis; label: none (SYBR Gold stain); blunt"}},
  "data": [
    {"binder": "BDNF promoter duplex mC/mC (dsDNA, 5-methyl-dC at position 10 of the top strand and position 15 of the bottom strand (symmetric mCpG)) DNA 1: GCCCTGGAACGGAACTCTTCTGGCC DNA 2: GGCCAGAAGAGTTCCGTTCCAGGGC", "values": [
      {"measurement": "Kd", "setting": "MeCP2-MBD WT [1]", "result": "1200 ± 100", "unit": "nM"},
      {"measurement": "Kd", "setting": "MeCP2-MBD WT [2]", "result": "1300 ± 100", "unit": "nM"}
    ]}
  ]
}
